Assay: soluble fraction after stress (log2 fold change); higher = more stays soluble; pooled small domains, quantitative proteomics
Conditions: stress: 50 degC
Outline: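 After stress at 50°C, the amount of each protein still soluble was measured. This was done on pooled custom libraries of small protein domains, using high-throughput quantitative proteomics. The figure given is a base-two log fold change and stands for aggregation propensity, with higher values meaning more protein stays in solution.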

| Sequence | soluble fraction (log2) |
| --- | --- |
| HMRVVPEILERAVAVFEALGVDRLPSSTLADRLGYDSPEALADVLRPLGVRPKKYRDGKSTARGYLAADLG | -0.473 |
| HMNNDSQYLATLQRYYAEHRVLPSYARMLPLLGFASKAAVKKVLERLEVVGMLERTEDGDWAPSERFFER | -1.7 |
| HMIRTGEVVTGKVINVKEDQIILNIGFKSDGIITRNEYTNDNSLDLRTVVHEGDEIEAKVLKVNDGEGQVV | ≥ 0.62 |
| HMQEQSSYVGQFGTAATTLRPSGTVELEDGTRIDVVTVGEFIEKGEPVQVVRKDGTWLVVEKRRSK | 0.286 |
| HMRQQAFWALVPEERDVLDETGAPLFRIGPTAWALVIEDRGEVFVVRDEDGRVGYLHEVDGVTR | -1.52 |
| HMKEFIPPVLDDVLKFFSGSLLPDWENQGRLFFSHYNSQGWRKGTGVQVTDWDSLANKWILDEKIKRDARS | -0.263 |
| HMSKTQVKSVLDDIKGIGVVRRKALIKHFNDIEAIKAAQLAELKAVAGMDSKSAQSVYDFFHK | -0.186 |
| HMKVKGVYQLDNGYWGYRFTMLVNGKTVSQRRVKDESGNPFKTEKKAEKARLVAMAEEQTKANK | -2.11 |
| HMGTGADQVSWKTGDKVTHKKWGEGTVVKVSGSGNDKELDIAFPQQGVKRLLASFAPIKKVT | 0.168 |
| HMPSTVRVPDVAETSLSEAKKTIEESGLEVGAIHKVNNDTVKKNHVIKTSPTIGSAKKEGSAIDIYVSKG | -0.0128 |
| HMQDTYQVKLLTNLNIRKSPNGTIVQKGGAKKGIIYTIVETSGTWGRLKSNAGWISVSDKYVTK | -3.43 |
| HMAGHKVDFSELPARSQAFIGKNFPTEMVKNVEMERKDAKDHYTVLLSNGTKVMFDGTSGELTGV | 0.0973 |
| HMELSPVDLGERLKIARETANFTQDAAAKAVGIARTTLVSIEKGQRTARLDEIQALSRFYGVSANALLR | -0.499 |
| HMLHPLLWAVDEPTPVTVRTRPEYVPDVVRWLMQPESQREHDGVVDLRYTVTHRAAFRSRIYVLGTRVTIP | -0.112 |
| HMIRDTTMYPVSVNGKKRYEWTVSKSISDDELKQQVLELEEIKKWIEGHEIKKLIFVPGRAINIV | -0.69 |
| HMDSQKKNETLSSTADEIIKNYAGKRDLSEESMEQLEQFQKDMRGADVNIFTAAQIRMLDQIFQENLH | -0.0243 |
| HMALPASLSPREREIVSLISQGKTNSEIASLLYISVPTVKTHISNIFQKTGVSNRTSLLNRLRMS | -0.164 |
| HMIFNENLKSAREKKGLSQKEVAEAIGVAKSTYSLYESGNREPNVQTIKRIADVLNVSADVLLGL | 0.00744 |
| HMAYWVVKNNQVSLQINRSNYQITSTARALSNGNLGDEIDVKVLQSGVIKKAVVIGKGQVELLR | -1.89 |
| HMKQLVVVPRVVSLSEGKAREDVGDRGLVVDRVEMDTLRTPYENTVTRQEPAADSRVPVGTRVTLWISPGV | 0.261 |
| HMDDPDALITDSQLKAIHVLLGKLKIDDNLKHAYIADVLQLKDIPETLKTLTKHQGSTIIERLNLLIKDA | 0.0419 |
| HMKRPEPESPEAERRSQRAADWLVRRDRGLTAAEQDEFLQWLAIDPRHGEWFALHRSVVGEFSA | -0.192 |
| HMRINIVKSKNAEQLYIIHSYRINGKNTSKIYKKLGTMADLLPLHNHDRDQVLAWAKEQARLATEQYDQEN | -0.855 |
| HMTYMWTTDGVNLRSEPNTDSAVVTVLGVGTQVRMIGEEDGWVKVSFNDQEGYIRADFLTTE | -0.0926 |
| HMGKAPREVQVGELLRVPALNAEGEVLRRDGESVELSIQGKKLRLPLAQLEAFSPRRFARRGEGKVRGRIE | 0.432 |

| Sequence | soluble fraction (log2) |
| --- | --- |
| HMADVYFDGKFLGETPVTVAVSTTGKPAHEISLIRGGYEPWSTTYQGNPRPGQTATVMAILVHA | 0.287 |
| HMNLSPADFSSVRNALGLSLSTVAKESGINRNYLSNFEKKKHFLEETAKVKLRDYYMSIDPDAFAAAL | -0.177 |
| HMAATSTGFPGVEVRGNSIRVFFMYKRDRHAHTLPLEPTRNNIKHADQLRSAALFALRNGTYNEADFFPHS | -1.53 |
| HMTVDHDERRSMILEAFMRLAAREGLHAVSLRGVAAEAGISLRLVQYYFETKARLMQSGLTALET | -0.281 |
| HMGDGMEVWVNGSPVNLTGKDSFIFVDIFDFIDFDLTASKGRLIVIKVNGEYAEYTRPLHNGDTIEIYWEE | -0.0714 |
| HMIQRLNVNTEVLSTYIRNSNTPIEYLRQKLPNIDKFLKGELEPTFNQVYALSKLINIPTGLLLLKEPIS | -0.995 |
| HMKISELAKKVIASGRVTQWAKHPHIYFVNGMRKVAIELDVNGVFSISMRYYPYDPADRELVENLIRGD | -2.53 |
| HMGSTDTLEDALEAAEKISYPVIIKATAGGGGRGMKVASSLEELKKVYHTTKLEAKNAFGNDQVYIEKYL | 0.116 |
| HMTKEGVNISITADGVQLSTESPNRVSIFNVNGTKVWEGIAPANVSLQKGVYILQTANGNTKFV | 0.265 |
| HMSEQYEQIQLALKTLTQDEQDIVRLVVVEGASLRTAGKNLGVSAMTIQRRLKRALARLRDLLAS | -0.948 |
| HMSYKYYSTERPLMPGSFPKPQGNTVLNIENFNDRSYVGKIGREAWGFIEYEKPISPVLLDDYELVAA | 0.0613 |
| HMRQISDPTALASMVDKVIEDNPSAVADYRRGESKALGFLIGRVMQSSGGKANPKMIRGLLVKNLES | -0.0922 |
| HMDKMIFFKNKENNDDNQLVKIGALLIHAAKIDEDFSQEEENIIKQTLINFGAGNKNINEIIEKAKKME | 0.389 |
| HMLLSYDIAEYIEKYIHEHGLQPGDRLPTERELAAQLDITRVSVRQGYKRLLDQGVIRSENGYYVNPPR | -1.34 |
| HMDELNFGNFEGTRIFVQRTARKKSIALSIRDGTIVILAPRHIPNQEIQELITTNTDWIRAKLSQHAETKR | -1.75 |
| HMSKEKQILQLLQHGYSQRRIADTLSVSRNTVAKVAKAAIEHPVSSDSLDSIDELELHQKLFPEEVLI | -0.339 |
| HMRKPDLTSVRTLIRSVSKLARHLKISPNGIYRWISVNRIPGAHVVKVANYYDVEIRDLVHLTGSD | -1.39 |
| HMDRELVALVQKALSQLSEQQRRIVELHVMEGMKYLEIADLLQLSENTVRTHLKRAYKILRENH | -1.76 |
| HMENVRKTEWVTISNDKSQTRTTVYFESGNQKLDKHPQIQGFEYQRTYVEGGVKYYLFVEKGTKLDE | -0.166 |
| HMLEDYFKEEEYTEVLKIPKEYIKGFQYYLIEDAEFVNALRAKNKTMTLFLAKKLASDYIEIIRREQ | -0.208 |
| HMDAPHPSVVQVYFESRDRSWTYYNDRFDLHEGDLVYVEGKLEGVRGRVVEVSYNFRIKLADYKRVIAVA | -3.66 |
| HMSSGNLESLLNKLHNEDYFVRLDAVKALGALGDPGAIDYLIEMLSENGIMRGWVANSLAALGEAQWKKII | -1.94 |
| HMQPHLSADEEHLLKILGSDTMHIDALVKRSTLETSNALAALAFLEMKGLVKNIGNMHYIRTYR | -0.139 |
| HMASQFSLIVTQADAGMRLDSLLAVSGAYPSRSAAVKQIEAGKVLVNGLARSKRSIVAPGDTIVYEEIP | -0.584 |
| HMAEVTLTVREQEVLHLLARGMSNGEMAAHLYVEPTTIKYHLTGLLQKTGSRDRLQAVLWGIRAGMVH | -2.18 |

| Sequence | soluble fraction (log2) |
| --- | --- |
| HMSPIQLKYNEYLIYIDEGKINTAEIHGNKITGKLKEGSEYVVTIYPELIASITEKLAENNVQTQLIQ | -0.0206 |
| HMVQIFIPVVHDDHWFLIVFSREEDTFYVLDSLPSLSRISTINGIISTLKEHLQQASVGPQYSVKVLPVK | -0.172 |
| HMKMVSTPTGTRISLTQVKEFISNASFDDMKEILLEVLAWFKAHNLGNPFNYNRAFEFIVAH | 0.102 |
| HMSNTGDIIRKLREESGVTAKELAHRIGLSASQMSRLESGKRRINSEVLTRIARALEVAPSQLID | -0.136 |
| HMASITLDQAKEIALTHAGQTADAVWFEKAEQDYDDGILVYELEFAAKGTEYEYEIDAQTGAIREYKWDD | -0.0142 |
| HMLIADADSLRKQIETVLANAPNEVAAYRGGKETLMGWFVGQIMRATGGKADPKLTREILAELLQ | 0.00102 |
| HMGADRLVGMTAIVTATIDPNDTDRKGRVQVEGEVWSALSDGRLIITEGSKVRITEMHGTRVRVEAI | -0.0351 |
| HMRILGIDPGSVVTGYGVIDKSGNYLRHVLHGEIKPHKGYLLSEVLMDIFSKLSAVIVETNPQSV | -0.0179 |
| HMGQISDEETLKTVASRIIDANPDEARKYRSGKTGLLGFFVGQVMKATQGEANPKLASRIVKELLE | -0.0262 |
| HMGTKDVNAAPSAVGRTYDEAIEILNGYKAGYLEEYSDTVPKGTVISQSVQDGQVVIVVSLGPKPS | 0.0391 |
| HMSTVELPVQINGKVRGRITVPANAGQEDVKQAALADSKVQRYIEGASIRKVIVVPRKLVNIVV | 0.13 |
| HMNISALKGKIGEVYLKIPAHNAGKGKVLISLKGTHHELYAITRSGEDISSGEFVKVIEIEDEILVVEK | -0.58 |
| HMGNFQNIFRKLRTSSNLTQNAIAEKLGISRSTIGMYETGAREPDFETLEKIADYFNVDTDFLLGRTNQTT | -0.106 |
| HMNGQITPSRAKEIALGHAGVSEGSANFKKIKLDNKNGRPAYEIEFIANNSRYEFEINASNGSIIKFNK | 0.345 |
| HMSEILQLINKIDKKLEKGYTFANISRNHYEKIYKEEILNLYKTSKLKGEAEDSIKEVLESLLGDLRKP | 0.0222 |
| HMDPTLFRLNILEGLGLEKKNLTSEEQEQLRFLYEHFSMKEILMTIDYIKKLNLEKSIVNLYRLMQHP | -0.0621 |
| HMSFESMGLTPRQADVLTLLLQGKSNKDIARRLVLSVETVKDHVQAVLRALGVSSRTQAVLAVGQMTQQ | -0.292 |
| HMDTGKLQSLVGSRGVAHTVLRPSGKVMIGDDVYPAVAETGFIPRGTAIVVRREEQGQLYVVEARK | 0.179 |
| HMLPANGEAIYHYLASGAIKGVGPVTAQRIVDKFGEDTFDVLENNPLWLAEIKGITRKTAENIGAAFAAQF | ≥ 0.62 |
| HMNLFNEIEKQYQALQDRSSASLVDLRHLLLDIEELVNSPDYQALAPDQRSTLQAARKELMRRIQKQEN | 0.213 |
| HMSKTKDVLVQLMAERGLTQSDIARALSVRPQAVQQWVSGKTRPTGKNLEALAEFLQLPPAVIVHGP | -0.00766 |
| HMSLTTKSVEETLGITRQTLHNWIKEGLLPAPKKDFRNWYIWSDEDLENLRNIIEQKTLINNKKQAV | -0.133 |
| HMGTLRPKGTVVFANLPIAADAKEGDMYNISDQFTTTASFKEGAGNVIPAGSNVYRTDDGFWDVL | 0.00637 |
| HMVDYSMEDSVWNNKKEHVNEWFDANPEHEGRRVIVDGLFAIGDAQPDLRKRHWSSISVVFADLDNSPIG | -0.356 |
| HMPISQGATVKHNANMRKGASTKYKVTGVLQEGEEVKILSQSNGWYKIQNSDNEKGWTYNTHINASDK | 0.0951 |

— the domain aggregation screens of Martell et al. (2025)
